This is an account of results in publication PMC6191456 (Scientific Reports, 2018).

First the molecules themselves.
B1: ParE toxin of the parDE system from the broad host range plasmid RK2 (natural protein)
chain: MTAYILTAEAEADLRGIIRYTRREWGAAQVRRYIAKLEQGIARLAAGEGPFKDMSELFPALRMARCEHHYVFCLPRAGEPALVVAILHERMDLMTRLADRLKG
notes: also called GST-ParE

Common to all, as to conditions: both partners purified
The target of test [1] is T1, pre-formed ClpA-ParD complex (E. coli | plasmid RK2, UniProt P0ABH9;P22995).
T1 construct: also called ParD-ClpA complex; source: formed on the sensor chip: purified ParD (200 nM) injected onto immobilised purified ClpA
T1 sequence 1: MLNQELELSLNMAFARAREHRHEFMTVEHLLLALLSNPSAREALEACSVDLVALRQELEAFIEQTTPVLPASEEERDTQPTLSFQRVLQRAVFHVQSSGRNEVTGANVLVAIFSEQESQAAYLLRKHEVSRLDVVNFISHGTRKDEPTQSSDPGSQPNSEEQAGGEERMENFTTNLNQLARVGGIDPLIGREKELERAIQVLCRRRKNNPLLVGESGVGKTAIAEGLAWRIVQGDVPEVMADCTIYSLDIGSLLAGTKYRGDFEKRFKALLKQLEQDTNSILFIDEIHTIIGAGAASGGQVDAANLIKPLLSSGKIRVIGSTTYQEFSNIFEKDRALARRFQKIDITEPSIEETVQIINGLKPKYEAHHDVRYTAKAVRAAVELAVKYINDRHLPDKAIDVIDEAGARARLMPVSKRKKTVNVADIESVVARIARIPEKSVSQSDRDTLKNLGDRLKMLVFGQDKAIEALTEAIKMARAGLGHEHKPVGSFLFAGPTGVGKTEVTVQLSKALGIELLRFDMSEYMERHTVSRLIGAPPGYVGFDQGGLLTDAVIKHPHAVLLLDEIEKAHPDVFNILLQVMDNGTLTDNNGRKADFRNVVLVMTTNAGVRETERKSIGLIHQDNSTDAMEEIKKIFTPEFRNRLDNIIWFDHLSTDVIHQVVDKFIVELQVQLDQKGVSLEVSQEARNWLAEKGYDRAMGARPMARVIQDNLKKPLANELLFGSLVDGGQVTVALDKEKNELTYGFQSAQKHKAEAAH
T1 sequence 2: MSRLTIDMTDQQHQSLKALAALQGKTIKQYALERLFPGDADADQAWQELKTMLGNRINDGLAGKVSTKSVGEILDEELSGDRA
Description: SPR; BIAcore 2000; ClpA immobilised on a CM5 chip; ParD (200 nM) injected to pre-form the ClpA-ParD complex, then ParE (200 nM) injected; ParD or buffer as controls; HBS-EP buffer with 10 mM magnesium acetate and 2 mM ATP. (SPR reads the build-up and loss of mass on a sensor chip optically.)

For test [2], the target named is T2, ClpA, the ATPase unit of ClpAP protease (E. coli, UniProt P0ABH9 1-758).
T2 construct: ClpA, ATP-dependent unfoldase subunit of the ClpAP protease, E. coli; also called ClpA ATPase; source: purified by a published protocol [55]
T2 sequence (looked up): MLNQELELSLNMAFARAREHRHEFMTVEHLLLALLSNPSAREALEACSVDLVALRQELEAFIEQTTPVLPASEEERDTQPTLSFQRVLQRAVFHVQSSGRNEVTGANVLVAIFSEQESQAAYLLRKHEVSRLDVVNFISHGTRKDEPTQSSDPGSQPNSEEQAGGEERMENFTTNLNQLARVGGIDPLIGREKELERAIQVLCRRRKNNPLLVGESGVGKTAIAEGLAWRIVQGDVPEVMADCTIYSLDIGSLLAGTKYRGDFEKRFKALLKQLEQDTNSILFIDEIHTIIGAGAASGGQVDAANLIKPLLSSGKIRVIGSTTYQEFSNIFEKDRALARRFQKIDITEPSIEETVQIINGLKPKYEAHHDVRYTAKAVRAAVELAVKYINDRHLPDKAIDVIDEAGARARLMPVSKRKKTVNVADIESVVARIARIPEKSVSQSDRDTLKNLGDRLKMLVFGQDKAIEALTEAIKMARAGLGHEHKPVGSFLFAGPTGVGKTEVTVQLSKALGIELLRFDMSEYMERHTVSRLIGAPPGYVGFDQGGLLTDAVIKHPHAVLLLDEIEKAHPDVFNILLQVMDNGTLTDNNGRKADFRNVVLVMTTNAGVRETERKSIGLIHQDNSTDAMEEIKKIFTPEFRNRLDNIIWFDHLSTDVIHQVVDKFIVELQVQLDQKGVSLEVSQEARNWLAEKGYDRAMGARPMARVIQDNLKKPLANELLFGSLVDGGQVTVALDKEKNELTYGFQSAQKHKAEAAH
Description: SPR; BIAcore 2000; ParD or ParE immobilised on a CM5 chip, ClpA injected; HBS-EP buffer with 10 mM magnesium acetate and 2 mM ATP; flow 15 µl/min.

Test [3] addresses B1. Kind of test: SPR; BIAcore 2000; ClpA immobilised on a CM5 chip; ParD (200 nM) injected to pre-form the ClpA-ParD complex, then ParE (200 nM) injected; ParD or buffer as controls; HBS-EP buffer with 10 mM magnesium acetate and 2 mM ATP.
In test [4] the target is T2, ClpA, the ATPase unit of ClpAP protease. Kind of test: SPR; BIAcore 2000; ClpA immobilised on a CM5 chip; mixture of ParD (200 nM) preincubated with increasing concentrations of ParE injected; HBS-EP buffer with 10 mM magnesium acetate and 2 mM ATP.

Take B1: the binding result in test [1] is on record as “binds”.

B2: ParD antitoxin of the parDE system from the broad host range plasmid RK2 (natural protein, UniProt P22995 1-83, looked up)
chain: MSRLTIDMTDQQHQSLKALAALQGKTIKQYALERLFPGDADADQAWQELKTMLGNRINDGLAGKVSTKSVGEILDEELSGDRA
notes: the construct is not described for the SPR; source: purified by a published protocol [30]
For B2, the binding result in test [2] and in test [3] was “binds” throughout.

B3: ParD-ParE complex (preincubated ParD and ParE proteins) (complex)
chain 1: MSRLTIDMTDQQHQSLKALAALQGKTIKQYALERLFPGDADADQAWQELKTMLGNRINDGLAGKVSTKSVGEILDEELSGDRA
chain 2: MTAYILTAEAEADLRGIIRYTRREWGAAQVRRYIAKLEQGIARLAAGEGPFKDMSELFPALRMARCEHHYVFCLPRAGEPALVVAILHERMDLMTRLADRLKG
notes: the ParD2-ParE2 make-up is cited from earlier work and not measured here; also called ParD-ParE heterotetamer; ParDE complex; source: purified ParD (200 nM) preincubated with increasing concentrations of purified ParE; copies: 2 + 2
Consider B3, for which the binding result in test [4] is “binds”.
